Measured values reported in patent US20090099029.

Target: T1, Bovine, dephosphorylated, Myelin Basic Protein (MBP), P02687
T1 chain: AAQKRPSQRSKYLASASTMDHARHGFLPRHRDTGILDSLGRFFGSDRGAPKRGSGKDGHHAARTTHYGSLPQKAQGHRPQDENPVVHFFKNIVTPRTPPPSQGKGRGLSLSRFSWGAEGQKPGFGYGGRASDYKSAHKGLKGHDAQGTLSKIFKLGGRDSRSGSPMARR

Protein	MBP Kinase Activity
TAOK2(TAO1) (protein) MPAGGRAGSLKDPDVAELFFKDDPEKLFSDLREIGHGSFGAVYFARDVRNSEVVAIKKMSYSGKQSNEKWQDIIKEVRFLQKLRHPNTIQYRGCYLREHTAWLVMEYCLGSASDLLEVHKKPLQEVEIAAVTHGALQGLAYLHSHNMIHRDVKAGNILLSEPGLVKLGDFGSASIMAPANSFVGTPYWMAPEVILAMDEGQYDGKVDVWSLGITCIELAERKPPLFNMNAMSALYHIAQNESPVLQSGHWSEYFRNFVDSCLQKIPQDRPTSEVLLKHRFVLRERPPTVIMDLIQRTKDAVRELDNLQYRKMKK	Strong
STK22B(TSSK2) (protein) MDDATVLRKKGYIVGINLGKGSYAKVKSAYSERLKFNVAVKIIDRKKTPTDFVERFLPREMDILATVNHGSIIKTYEIFETSDGRIYIIMELGVQGDLLEFIKCQGALHEDVARKMFRQLSSAVKYCHDLDIVHRDLKCENLLLDKDFNIKLSDFGFSKRCLRDSNGRIILSKTFCGSAAYAAPEVLQSIPYQPKVYDIWSLGVILYIMVCGSMPYDDSDIRKMLRIQKEHRVDFPRSKNLTCECKDLIYRMLQPDVSQRLHIDEILSHSWLQPPKPKATSSASFKREGEGKYRAECKLDTKTGLRPDHRPDHKLGAKTQHRLLVVPENENRMEDRLAETSRAKDHHISGAEVGKAST	Negative
TAOK3(JIK) (protein) MRKGVLKDPEIADLFYKDDPEELFIGLHEIGHGSFGAVYFATNAHTSEVVAIKKMSYSGKQTHEKWQDILKEVKFLRQLKHPNTIEYKGCYLKEHTAWLVMEYCLGSASDLLEVHKKPLQEVEIAAITHGALHGLAYLHSHALIHRDIKAGNILLTEPGQVKLADFGSASMASPANSFVGTPYWMAPEVILAMDEGQYDGKVDIWSLGITCIELAERKPPLFNMNAMSALYHIAQNDSPTLQSNEWTDSFRRFVDYCLQKIPQERPTSAELLRHDFVRRDRPLRVLIDLIQRTKDAVRELDNLQYRKMKKILFQETRNGPLNESQEDEEDSEHGTSLNREMDSLGSNHSIPSMSVSTGSQSSSVNSMQEVMDESSSELVMMHDDESTINSSSSVVHKKDHVFIRDEAGHGDPRPEPRPTQSVQSQALHYRNRERFATIKSASLVTRQIHEHEQENELREQMSGYKRMRRQHQKQLIALENKLKAEMDEHRLKLQKEVETHANNSSIELEKLAKKQVAIIEKEAKVAAADEKKFQQQILAQQKKDLTTFLESQKKQYKICKEKIKEEMNEDHSTPKKEKQERISKHKENLQHTQAEEEAHLLTQQRLYYDKNCRFFKRKIMIKRHEVEQQNIREELNKKRTQKEMEHAMLIRHDESTRELEYRQLHTLQKLRMDLIRLQHQTELENQLEYNKRRERELHRKHVMELRQQPKNLKAMEMQIKKQFQDTCKVQTKQYKALKNHQLEVTPKNEHKTILKTLKDEQTRKLAILAEQYEQSINEMMASQALRLDEAQEAECQALRLQLQQEMELLNAYQSKIKMQTEAQHERELQKLEQRVSLRRAHLEQKIEEELAALQKERSERIKNLLERQEREIETFDMESLRMGFGNLVTLDFPKEDYR	Strong
STK17A(DRAK1) (protein) MIPLEKPGSGGSSPGATSGSGRAGRGLSGPCRPPPPPQARGLLTEIRAVVRTEPFQDGYSLCPGRELGRGKFAVVRKCIKKDSGKEFAAKFMRKRRKGQDCRMEIIHEIAVLELAQDNPWVINLHEVYETASEMILVLEYAAGGEIFDQCVADREEAFKEKDVQRLMRQILEGVHFLHTRDVVHLDLKPQNILLTSESPLGDIKIVDFGLSRILKNSEELREIMGTPEYVAPEILSYDPISMATDMWSIGVLTYVMLTGISPFLGNDKQETFLNISQMNLSYSEEEFDVLSESAVDFIRTLLVKKPEDRATAEECLKHPWLTQSSIQEPSFRMEKALEEANALQEGHSVPEINSDTDKSETKESIVTEELIVVTSYTLGQCRQSEKEKMEQKAISKRFKFEEPLLQEIPGEFIY	Negative
STK22D(TSSK1) (protein) MDDAAVLKRRGYLLGINLGEGSYAKVKSAYSERLKFNVAIKIIDRKKAPADFLEKFLPREIEILAMLNHCSIIKTYEIFETSHGKVYIVMELAVQGDLLELIKTRGALHEDEARKKFHQLSLAIKYCHDLDVVHRDLKCDNLLLDKDFNIKLSDFSFSKRCLRDDSGRMALSKTFCGSPAYAAPEVLQGIPYQPKVYDIWSLGVILYIMVCGSMPYDDSNIKKMLRIQKEHRVNFPRSKHLTGECKDLIYHMLQPDVNRRLHIDEILSHCWMQPKARGSPSVAINKEGESSRGTEPLWTPEPGSDKKSATKLEPEGEAQPQAQPETKPEGTAMQMSRQSEILGFPSKPSTMETEEGPPQQPPETRAQ	Strong
TTK (protein) MESEDLSGRELTIDSIMNKVRDIKNKFKNEDLTDELSLNKISADTTDNSGTVNQIMMMANNPEDWLSLLLKLEKNSVPLSDALLNKLIGRYSQAIEALPPDKYGQNESFARIQVRFAELKAIQEPDDARDYFQMARANCKKFAFVHISFAQFELSQGNVKKSKQLLQKAVERGAVPLEMLEIALRNLNLQKKQLLSEEEKKNLSASTVLTAQESFSGSLGHLQNRNNSCDSRGQTTKARFLYGENMPPQDAEIGYRNSLRQTNKTKQSCPFGRVPVNLLNSPDCDVKTDDSVVPCFMKRQTSRSECRDLVVPGSKPSGNDSCELRNLKSVQNSHFKEPLVSDEKSSELIITDSITLKNKTESSLLAKLEETKEYQEPEVPESNQKQWQSKRKSECINQNPAASSNHWQIPELARKVNTEQKHTTFEQPVFSVSKQSPPISTSKWFDPKSICKTPSSNTLDDYMSCFRTPVVKNDFPPACQLSTPYGQPACFQQQQHQILATPLQNLQVLASSSANECISVKGRIYSILKQIGSGGSSKVFQVLNEKKQIYAIKYVNLEEADNQTLDSYRNEIAYLNKLQQHSDKIIRLYDYEITDQYIYMVMECGNIDLNSWLKKKKSIDPWERKSYWKNMLEAVHTIHQHGIVHSDLKPANFLIVDGMLKLIDFGIANQMQPDTTSVVKDSQVGTVNYMPPEAIKDMSSSRENGKSKSKISPKSDVWSLGCILYYMTYGKTPFQQIINQISKLHAIIDPNHEIEFPDIPEKDLQDVLKCCLKRDPKQRISIPELLAHPYVQIQTHPVNQMAKGTTEEMKYVLGQLVGLNSPNSILKAAKTLYEHYSGGESHNSSSSKTFEKKRGKK	Negative
TBK1 (protein) MQSTSNHLWLLSDILGQGATANVFRGRHKKTGDLFAIKVFNNISFLRPVDVQMREFEVLKKLNHKNIVKLFAIEEETTTRHKVLIMEFCPCGSLYTVLEEPSNAYGLPESEFLIVLRDVVGGMNHLRENGIVHRDIKPGNIMRVIGEDGQSVYKLTDFGAARELEDDEQFVSLYGTEEYLHPDMYERAVLRKDHQKKYGATVDLWSIGVTFYHAATGSLPFRPFEGPRRNKEVMYKIITGKPSGAISGVQKAENGPIDWSGDMPVSCSLSRGLQVLLTPVLANILEADQEKCWGFDQFFAETSDILHRMVIHVFSLQQMTAHKIYIHSYNTATIFHELVYKQTKIISSNQELIYEGRRLVLEPGRLAQHFPKTTEENPIFVVSREPLNTIGLIYEKISLPKVHPRYDLDGDASMAKAITGVVCYACRIASTLLLYQELMRKGIRWLIELIKDDYNETVHKKTEVVITLDFCIRNIEKTVKVYEKLMKINLEAAELGEISDIHTKLLRLSSSQGTIETSLQDIDSRLSPGGSLADAWAHQEGTHPKDRNVEKLQVLLNCMTEIYYQFKKDKAERRLAYNEEQIHKFDKQKLYYHATKAMTHFTDECVKKYEAFLNKSEEWIRKMLHLRKQLLSLTNQCFDIEEEVSKYQEYTNELQETLPQKMFTASSGIKHTMTPIYPSSNTLVEMTLGMKKLKEEMEGVVKELAENNHILERFGSLTMDGGLRNVDCL	Strong
